The values that follow come from the supplement of paper PMC11316812.

Data set [1] has as its system MCF7. Put plainly: percentage of EdU-negative (G0-arrested) nuclei per well, 72 h; higher = more G0 arrest. The conditions noted are these: reference: sequence is the full UniProt precursor, the tested protein was the secreted form or ectodomain.
The test system of data set [2] is hTERT-HMEC. Described as above. The conditions noted are these: reference: sequence is the full UniProt precursor, the tested protein was the secreted form or ectodomain.
[3] abbreviates: protein concentration 0.0357143 µM.
[4] abbreviates: protein concentration 0.357143 µM.
[5] abbreviates: protein concentration 0.0225 µM.
Setting [6] is: protein concentration 0.0257143 µM.
The mark [7] stands for this setting: protein concentration 0.257143 µM.
[8] abbreviates: protein concentration 0.0185 µM.
Setting [9] is: protein concentration 0.03125 µM.
[10] abbreviates: protein concentration 0.3125 µM.

± gives the standard deviation of the averaged measurements.
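Further: secreted proteins added to cultured cells, EdU pulse at the end, nuclei found by Hoechst imaging, EdU status from nuclear versus surrounding ring intensity ratio, PBS as neutral control.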

Consider “MAAAWTVVLVTLVLGLAVAGPVPTSKPTTTGKGCHIGRFKSLSPQELASFKKARDALEESLKLKNWSCSSPVFPGNWDLRLLQVRERPVALEAELALTLKVLEAAAGPALEDVLDQPLHTLHHILSQLQACIQPQPTAGPRPRGRLHHWLHRLQEAPKKESAGCLEASVTFNLFRLLTRDLKYVADGNLCLRTSTHPEST [Q8IU54]”, for which the “percentage of EdU-negative” value in data set [1] (setting [3]) stood at 25.7 ± 0.7%; in data set [1] (setting [4]) it was 26.7 ± 1.7%; in data set [2] (setting [3]) it was 7.03 ± 0.88%; in data set [2] (setting [4]), 20.5 ± 5.7%.

Consider “MAAEPLTELEESIETVVTTFFTFARQEGRKDSLSVNEFKELVTQQLPHLLKDVGSLDEKMKSLDVNQDSELKFNEYWRLIGELAKEIRKKKDLKIRKK”, for which the “percentage of EdU-negative” value in data set [1] (setting [5]) was found to be 27.3 ± 1.9%; in data set [1] (protein concentration 0.225 µM), 25.4 ± 0.45%; in data set [2] (setting [5]) it was 4.78 ± 0.24%; in data set [2] (protein concentration 0.225 µM), 5.02 ± 0.53%.

Consider “MAAERGARRLLSTPSFWLYCLLLLGRRAPGAAAARSGSAPQSPGASIRTFTPFYFLVEPVDTLSVRGSSVILNCSAYSEPSPKIEWKKDGTFLNLVSDDRRQLLPDGSLFISNVVHSKHNKPDEGYYQCVATVESLGTIISRTAKLIVAGLPRFTSQPEPSSVYAGNNAILNCEVNADLVPFVRWEQNRQPLLLDDRVIKLPSGMLVISNATEGDGGLYRCVVESGGPPKYSDEVELKVLPDPEVISDLVFLKQPSPLVRVIGQDVVLPCVASGLPTPTIKWMKNEEALDTESSERLVLLAGGSLEISDVTEDDAGTYFCIADNGNETIEAQAELTVQAQPEFLKQPTNIYAHESMDIVFECEVTGKPTPTVKWVKNGDMVIPSDYFKIVKEHNLQVLGLVKSDEGFYQCIAENDVGNAQAGAQLIILEHAPATTGPLPSAPRDVVASLVSTRFIKLTWRTPASDPHGDNLTYSVFYTKEGIARERVENTSHPGEMQVTIQNLMPATVYIFRVMAQNKHGSGESSAPLRVETQPEVQLPGPAPNLRAYAASPTSITVTWETPVSGNGEIQNYKLYYMEKGTDKEQDVDVSSHSYTINGLKKYTEYSFRVVAYNKHGPGVSTPDVAVRTLSDVPSAAPQNLSLEVRNSKSIMIHWQPPAPATQNGQITGYKIRYRKASRKSDVTETLVSGTQLSQLIEGLDRGTEYNFRVAALTINGTGPATDWLSAETFESDLDETRVPEVPSSLHVRPLVTSIVVSWTPPENQNIVVRGYAIGYGIGSPHAQTIKVDYKQRYYTIENLDPSSHYVITLKAFNNVGEGIPLYESAVTRPHTDTSEVDLFVINAPYTPVPDPTPMMPPVGVQASILSHDTIRITWADNSLPKHQKITDSRYYTVRWKTNIPANTKYKNANATTLSYLVTGLKPNTLYEFSVMVTKGRRSSTWSMTAHGTTFELVPTSPPKDVTVVSKEGKPKTIIVNWQPPSEANGKITGYIIYYSTDVNAEIHDWVIEPVVGNRLTHQIQELTLDTPYYFKIQARNSKGMGPMSEAVQFRTPKADSSDKMPNDQASGSGGKGSRLPDLGSDYKPPMSGSNSPHGSPTSPLDSNMLLVIIVSVGVITIVVVVIIAVFCTRRTTSHQKKKRAACKSVNGSHKYKGNSKDVKPPDLWIHHERLELKPIDKSPDPNPIMTDTPIPRNSQDITPVDNSMDSNIHQRRNSYRGHESEDSMSTLAGRRGMRPKMMMPFDSQPPQPVISAHPIHSLDNPHHHFHSSSLASPARSHLYHPGSPWPIGTSMSLSDRANSTESVRNTPSTDTMPASSSQTCCTDHQDPEGATSSSYLASSQEEDSGQSLPTAHVRPSHPLKSFAVPAIPPPGPPTYDPALPSTPLLSQQALNHHIHSVKTASIGTLGRSRPPMPVVVPSAPEVQETTRMLEDSESSYEPDELTKEMAHLEGLMKDLNAITTA”, for which the “percentage of EdU-negative” value in data set [1] (setting [6]) came to 24 ± 1.2%; in data set [1] (setting [7]), 26.44 ± 0.25%; in data set [2] (setting [6]), 6.13 ± 1.3%; in data set [2] (setting [7]), 12.3 ± 1.7%.

On to “MAAFPHKIIFFLVCSTLTHVAFSGIFNKRDFTRWPKPRCKMYIPLDPDYNADCPNVTAPVCASNGHTFQNECFFCVEQREFHYRIKFEKYGKCD [Q1W4C9]”, for which the “percentage of EdU-negative” value in data set [1] (setting [5]) was found to be 26.8 ± 1.7%; in data set [1] (protein concentration 0.225 µM), 27.7 ± 0.31%; in data set [2] (setting [5]), 5.06 ± 0.42%; in data set [2] (protein concentration 0.225 µM) it was 7.07 ± 0.77%.

With “MAAHLLPICALFLTLLDMAQGFRGPLLPNRPFTTVWNANTQWCLERHGVDVDVSVFDVVANPGQTFRGPDMTIFYSSQLGTYPYYTPTGEPVFGGLPQNASLIAHLARTFQDILAAIPAPDFSGLAVIDWEAWRPRWAFNWDTKDIYRQRSRALVQAQHPDWPAPQVEAVAQDQFQGAARAWMAGTLQLGRALRPRGLWGFYGFPDCYNYDFLSPNYTGQCPSGIRAQNDQLGWLWGQSRALYPSIYMPAVLEGTGKSQMYVQHRVAEAFRVAVAAGDPNLPVLPYVQIFYDTTNHFLPLDELEHSLGESAAQGAAGVVLWVSWENTRTKESCQAIKEYMDTTLGPFILNVTSGALLCSQALCSGHGRCVRRTSHPKALLLLNPASFSIQLTPGGGPLSLRGALSLEDQAQMAVEFKCRCYPGWQAPWCERKSMW”, the “percentage of EdU-negative” value in data set [1] (setting [5]) came to 26.3 ± 0.86%; in data set [1] (protein concentration 0.225 µM), 26 ± 1.1%; in data set [2] (setting [5]), 5.35 ± 0.22%; in data set [2] (protein concentration 0.225 µM) it was 5.55 ± 0.18%.

As to “MAALLLGAVLLVAQPQLVPSRPAELGQQELLRKAGTLQDDVRDGVAPNGSAQQLPQTIIIGVRKGGTRALLEMLSLHPDVAAAENEVHFFDWEEHYSHGLGWYLSQMPFSWPHQLTVEKTPAYFTSPKVPERVYSMNPSIRLLLILRDPSERVLSDYTQVFYNHMQKHKPYPSIEEFLVRDGRLNVDYKALNRSLYHVHMQNWLRFFPLRHIHIVDGDRLIRDPFPEIQKVERFLKLSPQINASNFYFNKTKGFYCLRDSGRDRCLHESKGRAHPQVDPKLLNKLHEYFHEPNKKFFELVGRTFDWH”, the “percentage of EdU-negative” value in data set [1] (setting [8]) was determined as 21.85 ± 0.18%; in data set [1] (protein concentration 0.185 µM), 26.7 ± 1.6%; in data set [2] (setting [8]), 4.41 ± 0.35%; in data set [2] (protein concentration 0.185 µM), 11.85 ± 0.08%.

Turning to “MAALSRALGPLRTPAPPLWIGLFLVATGSQQSLAQPLPGNTTEATPRSLRASGSLCGPHAKAPYLCEATHEPAAARIRAQVPDTRWSRVGGQRFYSRVLSPLHRGPSGHTEASAQRSHMGKLKEPQPQDHKPGLGAS [Q6UXU0]”, the “percentage of EdU-negative” value in data set [1] (setting [5]) amounted to 27.9 ± 0.64%; in data set [1] (protein concentration 0.225 µM), 23.7 ± 2.8%; in data set [2] (setting [5]), 5.38 ± 0.31%; in data set [2] (protein concentration 0.225 µM) it was 5.92 ± 0.84%.

As to “MAAPALSWRLPLLILLLPLATSWASAAVNGTSQFTCFYNSRANISCVWSQDGALQDTSCQVHAWPDRRRWNQTCELLPVSQASWACNLILGAPDSQKLTTVDIVTLRVLCREGVRWRVMAIQDFKPFENLRLMAPISLQVVHVETHRCNISWEISQASHYFERHLEFEARTLSPGHTWEEAPLLTLKQKQEWICLETLTPDTQYEFQVRVKPLQGEFTTWSPWSQPLAFRTKPAALGKDTIPWLGHLLVGLSGAFGFIILVYLLINCRNTGPWLKKVLKCNTPDPSKFFSQLSSEHGGDVQKWLSSPFPSSSFSPGGLAPEISPLEVLERDKVTQLLLQQDKVPEPASLSSNHSLTSCFTNQGYFFFHLPDALEIEACQVYFTYDPYSEEDPDEGVAGAPTGSSPQPLQPLSGEDDAYCTFPSRDDLLLFSPSLLGGPSPPSTAPGGSGAGEERMPPSLQERVPRDWDPQPLGPPTPGVPDLVDFQPPPELVLREAGEEVPDAGPREGVSFPWSRPPGQGEFRALNARLPLNTDAYLSLQELQGQDPTHLV”, the “percentage of EdU-negative” value in data set [1] (setting [9]) came out at 25.8 ± 3.7%; in data set [1] (setting [10]) it was 26.1 ± 1.1%; in data set [2] (setting [9]), 4.64 ± 0.89%; in data set [2] (setting [10]), 4.91 ± 0.7%.
